Test [1] deals with T1, Recombinant human Cripto-1 (rhCripto-1-1) (human, UniProt P13385 31-172, limits assumed).
T1 construct: Bought protein
T1 sequence (looked up): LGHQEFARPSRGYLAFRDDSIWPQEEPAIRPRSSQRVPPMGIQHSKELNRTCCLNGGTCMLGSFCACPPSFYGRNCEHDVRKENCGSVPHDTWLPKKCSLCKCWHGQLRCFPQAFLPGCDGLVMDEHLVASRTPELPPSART
The test is described as follows: SPR, average of two formats (Nodal to Cripto and Cripto to Nodal). A general note: In SPR one partner is held on a chip, and binding of the other changes the refractive index at the surface.

The target of test [2] is T1, Recombinant human Cripto-1 …. The test is described as follows: SPR; the curves are labelled Nodal 10nM, 25nM, 50nM and 100nM, so Nodal is the injected molecule (the legend paragraph 37 words panel B as Cripto to Nodal).
For test [3] the target is unchanged. Description: SPR; the curves are labelled hrCripto 4nM, 8nM, 16nM and 32nM, so Cripto-1 is the injected molecule (the legend paragraph 37 words panel A as Nodal to Cripto).

Here are results for 1 molecule from patent US20180319875A1 (ANN AND ROBERT H LURIE CHILDREN S HOSPITAL OF CHICAGO, published 2018).

B1: Recombinant human Nodal protein (rhNodal, E. coli derived His238-Leu347 with an N-terminal Met) (ligand)
chain: MHHLPDRSQLCRKVKFQVDFNLIGWGSWIIYPKQYNAYRCEGECPNPVGEEFHPTNHAYIQSLLKRYQPHRVPSTCCAPVKTKPLSMLYVDNGRVLLDHHKDMIVEECGCL
notes: range 238-347; also called full length Nodal; rNodal
On to B1, for which the Kd in test [1] is around 4 nM; in test [2], 5.8 nM; in test [3] it was 3.7 nM.

As a reminder, the Kd is a measure of binding affinity in units of concentration.
